Assay results taken from patent US20230398116A1, “Agent for reversing resistance to anticancer drugs” (Y'S AC CO., LTD., priority 2020, published 2023).

Key:
[1] = target: T1, human EphA3 on the surface of HCC70 cells (human, UniProt P29320 21-983); test: immunofluorescence colocalization on HCC70 cells (FIG. 21)
T1 construct: whole, on cells; Endogenous receptor on HCC70 cells; also called cell surface EphA3; EphA3 receptor
T1 sequence (looked up): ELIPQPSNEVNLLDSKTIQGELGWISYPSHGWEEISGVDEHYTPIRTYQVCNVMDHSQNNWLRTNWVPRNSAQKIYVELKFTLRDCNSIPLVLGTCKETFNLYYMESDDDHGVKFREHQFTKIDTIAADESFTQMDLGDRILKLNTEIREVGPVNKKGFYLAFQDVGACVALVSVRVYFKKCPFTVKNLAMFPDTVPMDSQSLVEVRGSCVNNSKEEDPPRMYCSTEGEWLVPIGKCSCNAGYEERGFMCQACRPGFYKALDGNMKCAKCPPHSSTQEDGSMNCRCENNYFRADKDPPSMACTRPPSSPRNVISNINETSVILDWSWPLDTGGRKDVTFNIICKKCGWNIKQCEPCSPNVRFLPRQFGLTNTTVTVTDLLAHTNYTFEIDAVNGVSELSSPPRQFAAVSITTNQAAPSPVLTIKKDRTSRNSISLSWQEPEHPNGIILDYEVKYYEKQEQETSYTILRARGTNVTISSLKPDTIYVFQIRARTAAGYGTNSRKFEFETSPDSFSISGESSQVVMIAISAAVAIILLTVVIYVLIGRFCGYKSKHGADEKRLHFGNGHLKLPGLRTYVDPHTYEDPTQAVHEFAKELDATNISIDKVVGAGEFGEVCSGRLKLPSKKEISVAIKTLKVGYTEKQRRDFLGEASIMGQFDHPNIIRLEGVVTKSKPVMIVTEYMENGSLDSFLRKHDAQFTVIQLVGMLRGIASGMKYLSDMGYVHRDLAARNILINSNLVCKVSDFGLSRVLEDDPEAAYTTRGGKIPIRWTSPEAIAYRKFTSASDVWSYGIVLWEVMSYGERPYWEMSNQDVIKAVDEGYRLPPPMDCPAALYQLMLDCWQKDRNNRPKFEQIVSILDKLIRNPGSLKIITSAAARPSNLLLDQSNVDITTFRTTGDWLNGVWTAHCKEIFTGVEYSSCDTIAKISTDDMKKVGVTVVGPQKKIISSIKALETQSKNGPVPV
Protocol: IL-26 merged with EphA3 on the cell surface. […] Original magnification 200×. Scale bar=20 μm. Representative images of three independent experiments with similar results are shown.
(§1) E0771 and HCC70 cells (1×10⁵) were cultured for 24 hours in RPMI1640 medium with 10% FCS on Lab-Tek chamber slides (Thermo Fisher Scientific). The cultured cells were stimulated with Alexa Fluor 488 labeled IL-26 (30 ng/ml) in the presence or absence of recombinant human and mouse EphA3-Ig for 1 hour. HCC70 cells were stimulated with IL-26 (30 ng/ml) in the presence or absence of gefitinib (40 μM), a signal inhibitor, and a neutralizing antibody for 24 hours. Subcutaneous tumor samples obtained from mice were fixed in 4% paraformaldehyde (Thermo Fisher Scientific) and embedded in OCT compound (Tissue-Tek (registered trademark), Sakura Finetek, Japan). Cells and slides were immunostained with each antibody and observed using a Zeiss inverted microscope and Axiovision 2.0 program (Carl Zeiss, Germany). The fluorescence intensity was quantified with Image-J software (NIH). The images were captured using a 100×400× objective.

[2] = target: T2, mouse EphA3 on the surface of E0771 cells (mouse, UniProt P29319 21-983); test: 2.5D fluorescence intensity plot of stained E0771 cells (FIG. 18)
T2 construct: whole, on cells; Endogenous receptor on E0771 cells; also called cell surface EphA3; EphA3 receptor
T2 sequence (looked up): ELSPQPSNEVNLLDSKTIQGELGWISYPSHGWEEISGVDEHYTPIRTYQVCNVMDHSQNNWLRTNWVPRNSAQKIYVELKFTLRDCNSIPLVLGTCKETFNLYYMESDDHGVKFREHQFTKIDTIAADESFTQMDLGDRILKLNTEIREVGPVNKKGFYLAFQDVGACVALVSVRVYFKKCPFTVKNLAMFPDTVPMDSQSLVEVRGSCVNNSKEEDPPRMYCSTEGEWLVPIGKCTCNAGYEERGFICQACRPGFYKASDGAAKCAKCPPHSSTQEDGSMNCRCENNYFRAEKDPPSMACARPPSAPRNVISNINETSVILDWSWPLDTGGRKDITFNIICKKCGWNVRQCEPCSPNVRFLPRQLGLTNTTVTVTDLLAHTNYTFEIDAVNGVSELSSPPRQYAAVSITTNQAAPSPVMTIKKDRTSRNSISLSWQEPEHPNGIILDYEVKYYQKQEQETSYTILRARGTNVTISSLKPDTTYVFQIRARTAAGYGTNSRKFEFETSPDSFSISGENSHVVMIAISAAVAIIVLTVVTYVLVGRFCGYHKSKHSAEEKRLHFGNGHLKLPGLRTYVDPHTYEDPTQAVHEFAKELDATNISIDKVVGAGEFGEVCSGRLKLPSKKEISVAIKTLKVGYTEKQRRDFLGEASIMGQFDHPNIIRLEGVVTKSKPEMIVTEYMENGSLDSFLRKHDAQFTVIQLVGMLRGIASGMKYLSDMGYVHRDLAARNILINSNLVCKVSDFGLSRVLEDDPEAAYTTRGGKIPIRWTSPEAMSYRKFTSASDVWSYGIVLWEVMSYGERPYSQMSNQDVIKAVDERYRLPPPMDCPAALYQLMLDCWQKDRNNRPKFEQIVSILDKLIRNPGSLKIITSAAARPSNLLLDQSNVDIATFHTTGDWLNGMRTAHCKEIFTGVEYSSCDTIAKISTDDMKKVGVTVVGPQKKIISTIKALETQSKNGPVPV
Protocol: 2.5D intensity plot of EphA3, IL-26, and DAPI signals represents the absolute signal intensity of each pixel. Merged views and individual channels were shown. […] These images show EphA3/IL-26 interaction in E0771 cells. 200×. A representative image of five independent experiments showing similar results is shown.
as §1

[3] = target: T3, recombinant human IL-26/AK155 monomer, Cat #1375-IL/CF, R&D Systems (human, UniProt Q9NPH9 22-171); test: ELISA, human IL-26 monomer coated at 0.5 µg/ml, antibody diluted 2-fold from 5 µg/ml, HRP anti-mouse kappa detection
T3 construct: also called recombinant human IL-26 monomer
T3 sequence (looked up): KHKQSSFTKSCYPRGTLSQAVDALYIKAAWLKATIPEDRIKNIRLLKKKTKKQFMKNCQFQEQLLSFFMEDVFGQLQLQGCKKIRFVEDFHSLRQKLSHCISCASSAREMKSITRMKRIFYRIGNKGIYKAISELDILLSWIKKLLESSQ
Protocol: The antigen binding of purified Ch69-10-IgG1, Hu69-10A-IgG1, and Hu69-10B-IgG1 was analyzed by ELISA. ELISA plates were coated overnight at 4° C. with the addition of 0.5 μg/ml human IL-26 (recombinant human IL-26/AK155 monomer, Cat #1375-IL/CF, R&D Systems, Minneapolis, MN) at 100 μl/well in 0.2 M sodium carbonate buffer (pH 9.4). Wells were washed with the wash buffer and blocked with the ELISA buffer. Subsequently, 100 μl/well of test antibody (mouse 69-10, Ch69-10-IgG1, Hu69-10A-IgG1, or Hu69-10B-IgG1) serially diluted 2-fold in RPMI medium starting at 5 μg/ml was added to measure a binding with IL-26. After incubation at room temperature for 1 hour and washing the plates with a wash buffer, a 1/2,000-diluted HRP-conjugated goat anti-human kappa chain polyclonal antibody (Bethyl Laboratories) (for Ch69-10-IgG1, Hu69-10A-IgG1 and Hu69-10B-IgG1) or a 1/2,000-diluted HRP-labeled goat anti-mouse kappa chain polyclonal antibody (Bethyl Laboratories) (for mouse 69-10) in ELISA buffer was added at 100 μl/well to detect bound antibodies. After incubation at room temperature for 30 min and washing with the wash buffer, 100 μl/well of ABTS substrate (Sigma Aldrich) was added to start color development and 100 μl/well of 2% oxalic acid was added to stop the color development. The absorbance was measured at 405 nm.

B1: Recombinant human IL-26 dimer (R&D Systems) (ligand, UniProt Q9NPH9 22-171, looked up)
chain: T3 sequence (looked up)
notes: Bought from R&D Systems and used for cell stimulation; For the immunofluorescence experiments it was labeled with Alexa Fluor 488 (rhIL-26-Alexa 488); also called exogenous IL-26; rhIL-26-Alexa 488
Question: Which results are given for B1?
Answer: binding result [1]: binds; binding result [2]: binds

B2: mouse anti-human IL-26 monoclonal antibody clone 69-10 (antibody, V domains shown)
VH: QVTLKESGPGILKPSQTLSLTCSFSGFSLSTSGMGVGWIRQPSGKGLEWLAHIWWDDDKYYNPSLKSQLTISKDTSRNQVFLKITSVDTADTATYYCVRGGITATHYYAMDYWGQGTSVTVSS
VL: DIQMTQSPASQSASLGESVTISCLASQTIGTWLSWYQQKPGKSPQLLIYAATSLADGVPSRFSGSGSGTKFSFKISSLQAEDFVSYYCQQLYSSPWTFGGGTKLEIK
notes: Mouse antibody from a hybridoma; also called mouse 69-10; m69-10
Question: B2 was tested. Which EC50 [3] did it give?
Answer: 0.34 mg/L
